From the supplement of paper PMC5998384

What was measured:
[1] = test system: HeLa Kyoto; assay: melting temperature (median over replicates), in situ; higher = more thermally stable
[2] = test system: HeLa Kyoto; assay: solubility change mitosis vs G1/S (difference of NP-40 vs SDS log2 ratios) (log2 ratio difference); higher = more soluble in mitosis
[3] = test system: HeLa Kyoto; assay: thermal stability score vs G1/S (z-score of summed log2 fold changes over temperatures); higher = more thermally stable than in G1/S
[4] = test system: HeLa Kyoto; assay: solubility in G1/S (NP-40 vs SDS abundance) (log2 ratio); higher = more soluble; conditions: cell cycle stage: G1/S
[5] = cell cycle stage: early G1 (4.5 h after nocodazole release)
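For melting temperature (median over replicates), in situ in this document: HeLa Kyoto cells synchronized by double thymidine or nocodazole block, proteins quantified by TMT10plex mass spectrometry, three independent biological replicates.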
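For solubility change mitosis vs G1/S (difference of NP-40 vs SDS log2 ratios) in this document: synchronized HeLa Kyoto cells (double thymidine block for G1/S, nocodazole release for mitosis), protein amounts in NP-40 versus SDS lysates quantified by mass spectrometry, three biological replicates.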
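For solubility in G1/S (NP-40 vs SDS abundance) in this document: HeLa Kyoto cells arrested at G1/S by double thymidine block, proteins quantified by TMT10plex mass spectrometry in mild NP-40 versus SDS extracts, three biological replicates.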
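For thermal stability score vs G1/S (z-score of summed log2 fold changes over temperatures) in this document: synchronized HeLa Kyoto cells, proteins quantified by TMT10plex mass spectrometry, three biological replicates, mitosis taken 0.5 h after nocodazole release, G1/S directly after double thymidine block.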

MEMEKEFEQIDKSGSWAAIYQDIRHEASDFPCRVAKLPKNKNRNRYRDVSPFDHSRIKLHQEDNDYINASLIKMEEAQRSYILTQGPLPNTCGHFWEMVWEQKSRGVVMLNRVMEKGSLKCAQYWPQKEEKEMIFEDTNLKLTLISEDIKSYYTVRQLELENLTTQETREILHFHYTTWPDFGVPESPASFLNFLFKVRESGSLSPEHGPVVVHCSAGIGRSGTFCLADTCLLLMDKRKDPSSVDIKKVLLEMRKFRMGLIQTADQLRFSYLAVIEGAKFIMGDSSVQDQWKELSHEDLEPPPEHIPPPPRPPKRILEPHNGKCREFFPNHQWVKEETQEDKDCPIKEEKGSPLNAAPYGIESMSQDTEVRSRVVGGSLRGAQAASPAKGEPSLPEKDEDHALSYWKPFLVNMCVATVLTAGAYLCYRFLFNSNT [PTPN1]
melting temperature ([1]; cell cycle stage: G1/S): 49.4 °C
melting temperature ([1]; cell cycle stage: mitosis): 50.1 °C
solubility change mitosis (log2) [2]: -0.122
thermal stability score [3, 5]: 1.7
thermal stability score ([3]; cell cycle stage: mitosis): 4.54
solubility in G1/S (log2) [4]: 0.0951

MEMEQEKMTMNKELSPDAAAYCCSACHGDETWSYNHPIRGRAKSRSLSASPALGSTKEFRRTRSLHGPCPVTTFGPKACVLQNPQTIMHIQDPASQRLTWNKSPKSVLVIKKMRDASLLQPFKELCTHLMEENMIVYVEKKVLEDPAIASDESFGAVKKKFCTFREDYDDISNQIDFIICLGGDGTLLYASSLFQGSVPPVMAFHLGSLGFLTPFSFENFQSQVTQVIEGNAAVVLRSRLKVRVVKELRGKKTAVHNGLGENGSQAAGLDMDVGKQAMQYQVLNEVVIDRGPSSYLSNVDVYLDGHLITTVQGDGVIVSTPTGSTAYAAAAGASMIHPNVPAIMITPICPHSLSFRPIVVPAGVELKIMLSPEARNTAWVSFDGRKRQEIRHGDSISITTSCYPLPSICVRDPVSDWFESLAQCLHWNVRKKQAHFEEEEEEEEEG [NADK]
melting temperature ([1]; cell cycle stage: G1/S): 61.1 °C
melting temperature ([1]; cell cycle stage: mitosis): 59.2 °C
solubility change mitosis (log2) [2]: 0.129
thermal stability score [3, 5]: -6.99
thermal stability score ([3]; cell cycle stage: mitosis): -2.68
solubility in G1/S (log2) [4]: 0.208

MENMAEEELLPLEKEEVEVAQVQVPTPARDSAGVPAPAPDSALDSAPTPASAPAPAPALAQAPALSPSLASAPEEAKSKRHISIQRQLADLENLAFVTDGNFDSASSLNSDNLDAGNRQACPLCPKEKFRACNSHKLRRHLQNLHWKVSVEFEGYRMCICHLPCRPVKPNIIGEQITSKMGAHYHCIICSATITRRTDMLGHVRRHMNKGETKSSYIAASTAKPPKEILKEADTDVQVCPNYSIPQKTDSYFNPKMKLNRQLIFCTLAALAEERKPLECLDAFGATGIMGLQWAKHLGNAVKVTINDLNENSVTLIQENCHLNKLKVVVDSKEKEKSDDILEEGEKNLGNIKVTKMDANVLMHLRSFDFIHLDPFGTSVNYLDSAFRNIRNLGIVSVTSTDISSLYAKAQHVARRHYGCNIVRTEYYKELAARIVVAAVARAAARCNKGIEVLFAVALEHFVLVVVRVLRGPTSADETAKKIQYLIHCQWCEERIFQKDGNMVEENPYRQLPCNCHGSMPGKTAIELGPLWSSSLFNTGFLKRMLFESLHHGLDDIQTLIKTLIFESECTPQSQFSIHASSNVNKQEENGVFIKTTDDTTTDNYIAQGKRKSNEMITNLGKKQKTDVSTEHPPFYYNIHRHSIKGMNMPKLKKFLCYLSQAGFRVSRTHFDPMGVRTDAPLMQFKSILLKYSTPTYTGGQSESHVQSASEDTVTERVEMSVNDKAEASGCRRW [TRMT1L]
melting temperature ([1]; cell cycle stage: G1/S): 51.8 °C
melting temperature ([1]; cell cycle stage: mitosis): 50.9 °C
solubility change mitosis (log2) [2]: 0.324
thermal stability score [3, 5]: -0.774
thermal stability score ([3]; cell cycle stage: mitosis): -3
solubility in G1/S (log2) [4]: -0.537

MENQVLTPHVYWAQRHRELYLRVELSDVQNPAISITENVLHFKAQGHGAKGDNVYEFHLEFLDLVKPEPVYKLTQRQVNITVQKKVSQWWERLTKQEKRPLFLAPDFDRWLDESDAEMELRAKEEERLNKLRLESEGSPETLTNLRKGYLFMYNLVQFLGFSWIFVNLTVRFCILGKESFYDTFHTVADMMYFCQMLAVVETINAAIGVTTSPVLPSLIQLLGRNFILFIIFGTMEEMQNKAVVFFVFYLWSAIEIFRYSFYMLTCIDMDWKVLTWLRYTLWIPLYPLGCLAEAVSVIQSIPIFNETGRFSFTLPYPVKIKVRFSFFLQIYLIMIFLGLYINFRHLYKQRRRRYGQKKKKIH [HACD3]
melting temperature ([1]; cell cycle stage: G1/S): 53.8 °C
melting temperature ([1]; cell cycle stage: mitosis): 53.9 °C
solubility change mitosis (log2) [2]: -0.00775
thermal stability score [3, 5]: -0.451
thermal stability score ([3]; cell cycle stage: mitosis): -1.3
solubility in G1/S (log2) [4]: -0.3
